Assay: soluble on expression in E. coli; label from the status in PepcDB or PDB records

| Sequence | soluble on expression in E. coli |
| --- | --- |
| MHGEETPRTDLTLFSEKMQELKSRIASVIVGQERTVDLVLTAILANGHVLIEGVPGVAKTLLARLTARLIDADFSRVQFTPDLMPSDVLGTTVFNMKTNEFDFHRGPVFANIILVDEINRAPAKTQSALFEVMEERQASIDGTTYRMGELYTILATQNPVEQEGTYKLPEAQLDRFLMKITMDYPSLDEEINILERHHTNAALVKLEEIQPVITREELLSLRRLTEKVFVDRTLLQYIALIAQQTRTSKAVYLGASPRASVAMLQASKAYALLQGRDFVTPEDIKFVAPYVLQHRLILTAEAEMEGYSPVKVTQRLIDKVEVPKLEHHHHHH | soluble |
| LPVPAGSRFEARVLGETRAMCCPGCQAVAEAIVAGGLESYYRHRSENAANPEALPKALSEELQLYDRPDVQGGFVRHEGELAETSLMIEGISCAACGWLIEKHLRQLPGVAEARLNLSNHRLHVRWQDSQLPLSQLLGELRQIGYAGHPYQPDRATERLAMENRR | not soluble |
| SPNALDISRTYPTLHVLIQFNHRGLEVRLFRHGQFWAETRADVILRSKTKQVSFLSNGNYPSMDSRAPWNPWKNTYQAVLRAEPCRVTMDIYYKRVRPFRLPLVQKEWPVREENVFGLYRIFNAHYAGYFADLLIHDIETNPAPFMFRPRKQVFQTQGAAVSSMAQTLLPNDLASKAMGSAFTALLDANEDAQKAMKIIKTLSSLSDAWENVKETLNNPEFWKQLLSRCVQLIAGMTIAVMHPDPLTLLCLGTLTAAEITSQTSLCEEIAAKFKTIFITPPPRFPTISLFQQQ | not soluble |
| MGSSHHHHHHGGTGENLYFQGGSGKNYFYIPIADDMHCHLRQGDMLDFTVNSIRRGGCNRVLVMPNTHPIISTCSDAQKYLYQLKSRDDDIEYLMTLYLNKNTDENDILSNYYKCNLQGVKIYPSNVTTNSSDGITSLEPYYKVFHALEKLNKSIHIHCEEPNINPLYAEEKYLPHIHDLAIKFPGLNIVLEHISSSESINVIKEFRNVAGSITPHHLYLTIDDVVNMDIYDHAIDNTYIEKYIKNTYHYCKPLPKLLEDKIALQDVIKDDFPRVFLGSDSAPHYKVMKRKPYYKPGIYTQPFLINYVAHILNKFDALDKMENFTSKNASLFLNLAEKKKLAKYYICVEKHPFKLPREYNGVVPFLAGKTLDYDIHYVSKF | not soluble |
| MSLTQGSVIFTQNRPGLDEKIFKIYKFKTMSDERDEKGELLSDELRLKAFGKIVRSLSLDELLQLFNVLKGDMSFVGPRPLLVEYLPLYNKEQKLRHKVRPGITGWAQVNGRNAISWQKKFELDVYYVKNISFLLDLKIMFLTALKVLKRSGVSKEGHVTTEKFNGKNEGHHHHHH | not soluble |
| MKPKPLKCITSHHYIIKFYDKSNLRTSLYLLIFKEHKDYREQMKVYIIDYHKDDPKRCTGKKLVKLKIAEFTRVGKGVVLDPFAQITLSNKDKDIVRRIGITIVDTSWNNTSQSEFKNIRGEHRRIPILFAGNPIHYGIAYKLSSIEALIATLYIVDEVEEAIKLSNVVKWGHTFIELNKELLEAYKNKTEEDIKKIEREIIEKILEKLEHHHHHH | not soluble |
| NTTGGRFVDKDNRKYYVKDDHKAIYWHKIDGKTYYFGDIGEMVVGWQYLEIPGTGYRDNLFDNQPVNEIGLQEKWYYFGQDGALLEQTDKQVLEAKTSENTGKVYGEQYPLSAEKRTYYFDNNYAVKTGWIYEDGNWYYLNKLGNFGDDSYNPLPIGEVAKGWTQDFHVTIDIDRSKPAPWYYLDASGKMLTDWQKVNGKWYYFGSSGSMATGWKYVRGKWYYLDNKNGDMKTGWQYLGNKWYYLRSSGAMVTGWYQDGLTWYYLNAGNGDMKTGWFQVNGKWYYAYSSGALAVNTTVDGYSVNYNGEWVQ | soluble |
| MSLRASTVKQHAFGLLIPELGQTEIFEPICQGMVAAQEAHNHVLIWGRSLAGSETTEADAKDVCARLISNRVSGVFFAPIEANPQKDAINRIISTMLSDAKIPIVLLDRDIVDYPQRSKFDVVGIDNRRAGCVATQHLIDAGCRRIGFIGRPHLAPSCVARCNGYRETVSNSSIPLAPTFAERLDPSDPILVGKVMDRHKPDGIVCSNDRTAALLMRTFATLKIAVPDQVRLVAFDDVKYASLVTVPLTTIHQPCDQLGAAAIQAMVQRIESPDMPPRDILVDFHLVVRESCGARMAREGHHHHHH | soluble |
| MNIHKALCLSAGVSVALISLAAQAAETVTIATVNNGDMIRMQRLSKIFEQQHPDIKLNWVVLEENVLRQRLTTDIATQGGQFDVLTIGTYETPLWGAKQWLEPITDLAPEYDLEDIFPSVRQGLSVKNTLYALPFYGESTITYYRTDLFKQAGLSMPERPTWTQLGEFAAKLHQPDKGVYGMCLRGKAGWGENIALLSTMANAFGARWFDEHWKPELNSPEWANAANFYVNTLKNYGPPGVSSNGFNETLALFNSGKCALWVDASVAGSFTTDKEQSKVVDSVGFAPAPVEVTDKGSSWLYAWSLAIPATSRHKDAAKAFITWATSKAYIQLVAEKDGITNVPPGTRTSTYSEAYLKAAPFAKVTLQMMQHADPAQPSAKPVPYVGIQYVTIPEFQAIGTSVGKLFSAAVTGQTTTEQALTAAQAVTEREMKRAGYPK | not soluble |
| MSLDCKIDIIPRVLHFKQPAGTSRGTYTTRKVWYLHFTAPEFPNWVGIGECAPLPNLSCDDLPDYEEVLAKICRQVENQGGKLDMEALCKYPSILFGLETAIRHFFEGSWALWDTPFSRGEAGIPINGLIWMGDFNRMLAQIEKKMEAGFRCIKLKIGAINFEEELALLQHIRSHYSSKEIELRVDANGAFSPTDAMEKLKRLSELDLHSIEQPIRAGQWEEMARLTSESPLPIALDEELIGYNTWEEKQRLLSAIRPQYIIIKPSLHGGLAGGEEWIAEAEKLNIGWWITSALESNIGLNAIAQWCATFQNPLPQGLGTGLLFTDNVEMPLEIRKDCLWFCKEGHHHHHH | soluble |
| MGSDKIHHHHHHVKKLELYTGTEQGKPAIGIRLGGEASIQDLLDLWQPLCDDSELFKSYAAGNHATCRGCLHNCCQTAYVIPDLISFKKMAAHLHLTYKEFLSADFFDAEKLEAGIVRMKPNPCIFLQDNICSIYPLRSLICRFYICCQLMGDCEQLIYSICWSGSAATQLFAEQEGLINSKGSGALSSFDLMFKRLMEEYRFDPRVQLFLQANDYYDIPLSAFTAADI | not soluble |
| SIDSKLQTLGEQLMQGKRGAIVMIEPETGEVLCLVSSPSYDPSLLAGKDRGKNHLEMEHDRNKPLYARAIQATYPPGSTFKPAQGAIFLQEGVIRPTDAFSCYHGFPPLNNRPACHSHGSPLSLVPALATSCNAFFCWGLRAMLDNRRFYPSVQEAFEHWKNRIVGLGFGYRLGLDLPGERRGYIPNSKVYDKAYKGRWNSSTIISISIGQGEILATPLQIANLGVIIANRGRYRRPHVVKAIQGIPLDTAYTNWQNSGISPANMEYIVEGMARAVTGGTCHAANFAPGEIEVCGKTGTAENPHGKDHSAFLGFAPRNNPKVVVSVYVENGGFGAVYGVPIGRVMMEYYLREGKLSPEGEAVATKMSNTAIHYSNVF | not soluble |
| MGSDKIHHHHHHNEAQVSAVKQFVEGFNQKNVQSMQSHTTDDVKWFSISEGAMALETSDKEELGEAMQNYFSGYSSAHAKIVNLVNSGDFISTVEQVKWQNEGKWFMQCSLGVYRFKQNKIASVWYYPAHVCDATNAQVN | not soluble |
| MGSDKIHHHHHHASHYLLLGGSGWDKIAIVNKNTKEIEWEHPLEKGWECNSVAVTPDRNILFSYSKGAKLITRDHEEVWNISAPEGCEMQTARVLPNGNYLLAWCGYPATIMEVNAKGEILSKTDFDTHIEQPHAQFRQVNKNKQGNYLVPLFATSEIREISPSGQLLKSVKVDGNPFSVAALDNGNYLVACGDAHCFIELNFETGDIVRKVNENDIEGAQLFFVAQLLPKRDGGLYICNWQGHDGEAAKGHYPQLIEINGAGKMVWDLNDNATFGMISSICPID | not soluble |
| MTQAADILIAGGGLNGPALALALARNGFSVTVVDGRPAPQRAEPGFDGRAYALALASKRLLAALGLWDGLASQAQPILRVVTADGTTAGGPSPFVLAFDHAEIEEGPMGYLLEDRFLYAAFLAALEAEPRIRLVSGTTVEAQEVGPQGVTVTLSTGAQLSGRLLVGCDGRQSGTARRAGIRRSGWGYGQTALVTAIEHERPHEGTAWQYFLPGGPLAILPLPGGHRSSIVWSESDAAAAGIQRLPDADYLGALRPRFGDFLGSIRLAGDRFTYPLSLSLAHSFVAPRVALVGDAAHGVHPIAGQGLNLGLRDVAALAEVLTLAARRGEDVGSPLVLDRYQQWRRFDATALALGMDMVNRLFSNDNPVMRAGRDLSMGIVNALPGLRRGFIRQAAGLSGDLPRLLQGRPILEHHHHHH | not soluble |
| MSWSLLSNIIKKFTLLHHFQPIGYIYKYIHICTLNHSLGSCVLQANYSIQNNLRSRTLFIQSEITYSHSLESTHFFGILIFFNIKFRVFNRINDPWTVLDNVPEVMFHDRFFINDFTFWVDVLQEAFRMRRWIFRFEQLVVNPSFSNSQWRIIF | soluble |
| GVKCEPIEELTINVPEEYSSKIIDMVTRRKGEMTMMENTGERINLEFDMPSRGIIGLRTNVLTASAGEAIMAHRFKEYQPFKGDIERRTNGSIIAMESGTAFAYAIDKLQDRGKFFIFPQEEVYAGQV | not soluble |
| MMMEIEDDEVPSPPSPHPAGTTIGGPNSKRYSDILSLDYCTFRIPYEELNIRFRNGQKDLDRAATGVAKAAELLQKKTAGSNEPVSRESLRRHFDLLIRQVQEARKTVERITQSEIEQLDKITTRADRIHEEFEVTRDSENPRNTEKLERQKFCRFIVWHMLRCGYIEPAKVLVKEMELEDLVDVDVFENMYAVQQALLDGNIQPCLAWCDRHHRKLRKLESRIELVARQQEAVTLIELGNIPEAVAYVKKYIAPIAKGKFTEDLKKTMGAIACTLEQSRLRNPELHAADRYQKCAALFIEEAHRIFEIHGNTALATLIQYGLATQKTPSCHNDEKTPLDKQKCIVCRPDVWPIAENLPYSHVANSRIFCSLSGKLCDDDKNIPFLFPSGHVIGSAAIERLKRDDNKLYDPIHKKLIDEEEALRLYFL | not soluble |
| GREEAPNAEADILSCRLPGVVMTTSPIITNNSINIFVGPGTDISSLAPEFTLTPGATIDPPSGTARDFHSPQQYTVTAADGFWKKKYTVSVIDTELATIYNFEDTLGGQKYYIFVEREGEKVVMEWASGNAGYAMTGVPKTADDYPTFQFANGKTGKCLSLVTRSTGFFGSIMGMPIAAGNLFIGSFDVGNAMSNPLKATKFGLPFRHIPTYLAGYYKYKAGDQFTEGGKPVSGKRDICDIYAIMYETSESVPTLDGTNAFTSPNLVSIARIDDAKETDEWTYFKLPFHMLSGKYIDKEKLTAGKYNVAIVFTSSLEGDHFNGAIGSTLLIDEVELIYRSED | soluble |
| MSLALIVQKFGGSSVGSVERIQAVAQRVYKTVKAGNSLVVVVSAMGKTTDGLVKLANEISRNPNRREMDMLLSTGEQVTIALLSMALQELGQPAISMTGAQVGIVTEAEHTRARILHIETERVEGHIKEGKVVVVAGFQGISSNGSLEITTLGRGGSDTSAVALAAALQADFCEIYTDVPGILTTDPRIVPEAQLMGEITCNEMLELASLGAKVLHPRAVEIARNYGMPLVVKSSWTDDPGTWVTTPKPQGRSLINLELARPVDDVELDTDQAKVALLRVPDKPGVAAKLFGEISRQKVDVDLIIQSIHEGNSNDIAFTVTTPILKRAEAVAAAIAPSLRSPSHPKSDEAEVMVEQNIAKVSIAGAGMIGRPGVAAQMFATLAEAGVNIQMISTSEVKVSCVIDAQDGDRAIIALRKAFEIETPLHSQLPTPSSLSTHNSPPVRGVALDLNQARLAIRQVPDRPGMAAQLFGILSQHNISVDMIIQSQRCRIVDGVPRRDIAFTVPRMDGETAQKLLCQVAPELGWGDVVLDSAIAKVSIVGAGMVGQPGVAAKMFEALAKHQINIQMIATSEIKISCVVSQEQGVQALQVIHTAFELAGTEKFVVPAEGHHHHHH | not soluble |
| THSQLDQLLTGLVDRVAEVDHAVVLSEDGLVVSKSTGFLRDDAERLAATASGLMSLSKGVSMDFRRGPVRQALIEMGKGYLILTAAGPGAHLVVLTRQGADVGVVAYQMNMLVKKIGEHLSAPPRG | soluble |

— the DeepSol protein solubility set
